Reference: publication PMC6503762

Biological target: MSBI1.176 Rep WH1 domain (residues 1-135) (MSBI1.176 (bovine meat and milk factor DNA isolated from a brain sample of a human patient with multiple sclerosis))
Experiment: crystal structure; hanging-drop vapor diffusion at 18°C, 1:1 protein (5 mg/ml in 25 mM Tris-HCl pH 7.6, 300 mM NaCl) and 0.2 M magnesium acetate, 20% PEG 3350; S-SAD phasing; 1.53 Å; one dimer in the asymmetric unit

## MSBI1.176 Rep WH1 domain (residues 1-135) (domain or fragment)
  stoichiometry N: 2
